Series [1] concerns T1, GdhR (Neisseria gonorrhoeae FA19), ORF:8165ddaf.
T1 sequence: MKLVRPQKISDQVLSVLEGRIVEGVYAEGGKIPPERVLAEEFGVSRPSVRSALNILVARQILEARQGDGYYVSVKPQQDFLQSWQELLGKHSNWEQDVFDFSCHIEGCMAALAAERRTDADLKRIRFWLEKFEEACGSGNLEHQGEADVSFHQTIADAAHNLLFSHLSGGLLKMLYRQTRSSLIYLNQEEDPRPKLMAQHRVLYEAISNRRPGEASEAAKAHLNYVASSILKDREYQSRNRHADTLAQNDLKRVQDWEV
Put plainly: competition. As to conditions: EMSA: 12 fmol DIG-DNA in 20 uL, 20 mM Hepes pH 7.6, 1 mM EDTA, 10 mM (NH4)2SO4, 1 mM DTT, 0.2% Tween-20, 30 mM KCl, 1.25 ng/uL calf thymus DNA, 25 min, 30 C. On the technique in general: A gel shift assay detects complexes by their altered migration in electrophoresis.

Series [2] shares this test system. Briefly: EMSA. Particulars: EMSA: 12 fmol DIG-DNA in 20 uL, 20 mM Hepes pH 7.6, 1 mM EDTA, 10 mM (NH4)2SO4, 1 mM DTT, 0.2% Tween-20, 30 mM KCl, 1.25 ng/uL calf thymus DNA, 25 min, 30 C.

“CGTAGGGTGCGAGCGTTAATCGGAATTACTGGGCGTAAAGCGGGCGCAGACGGTTACTTAAGCAGGATGTGAAATCCCCGGGCTCAACCCGGGAACTGCGTTCTGAACTGGGTGACTCGAGTGTGTCAGAGGGAGGTGGAATTCCACGTGTAGCAGTGAAATGCGTAGAGATGTGGAGGAATACCGATGG (double strand) [16S rRNA gene fragment]”: the binding result in series [1] is given as “no binding”.

“GTGGACGGGGACGGCGCGGTATTCGTGCCGCCGGAAGAATGCTGAAAATGCCGTCTGAAGCCTTTCGGGCGGCTTTTTCTACACGCCCCTTTCCCACACTCCCTCCGCCGCATCATCACCATCCTTAACCCGCATTAATAGCCATTATCGATAAAATGCTTGACCGATTACATAAGATTACGTAAAGTGTGCAAACGCATAATAATTGGTCTTACCAATTTATCTTTTAACCAAAATATCGGGTGTGCGGGATTTGAACGTCTTTCCAAACCTCGACGCGCCTTATGATGC (double strand) [lctP promoter, unlabeled competitor]”: the binding entry in series [1] was “binds”.

With “GTGGACGGGGACGGCGCGGTATTCGTGCCGCCGGAAGAATGCTGAAAATGCCGTCTGAAGCCTTTCGGGCGGCTTTTTCTACACGCCCCTTTCCCACACTCCCTCCGCCGCATCATCACCATCCTTAACCCGCATTAATAGCCATTATCGATAAAATGCTTGACCGATTACATAAGATTACGTAAAGTGTGCAAACGCATATCTTTTAACCAAAATATCGGGTGTGCGGGATTTGAACGTCTTTCCAAACCTCGACGCGCCTTATGATGC (double strand) [lctPΔFadR EMSA probe]”, the binding result in series [2] was “binds more weakly”.

The values are drawn from article PMC6957213.
